Experimental data reported in US20230303711A1.

Molecular target: Fc-tagged human CD47-ECD protein (CD47-Fc) (human)
Experiment: ELISA on coated human CD47-Fc; row printed as Affinity (µg/mL)

Fc-tagged human CD47-ECD protein (CD47-Fc) (human), sequence (chain, as listed by the source limits assumed): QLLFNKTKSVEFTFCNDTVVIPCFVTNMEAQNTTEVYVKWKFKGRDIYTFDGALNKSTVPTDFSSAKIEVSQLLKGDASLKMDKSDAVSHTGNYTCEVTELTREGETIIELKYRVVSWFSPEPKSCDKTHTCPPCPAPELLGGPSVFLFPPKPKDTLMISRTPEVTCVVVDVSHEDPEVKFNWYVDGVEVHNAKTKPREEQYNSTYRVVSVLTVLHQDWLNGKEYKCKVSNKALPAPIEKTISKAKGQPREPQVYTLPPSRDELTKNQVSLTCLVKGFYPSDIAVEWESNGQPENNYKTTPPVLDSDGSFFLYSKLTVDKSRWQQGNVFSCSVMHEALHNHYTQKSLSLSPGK

B1: Antibody 17 (antibody, human IgG1, kappa, V domains shown)
VH: QVQLQESGPGLVKPSETLSLTCTVSGGSLDNYYWSWIRQPPGKGLEWIGYIYYSGNTNYNPSLKSRVTISVDTSKNQFSLRLRSVTAADTAVYYCARGGRFLERYWGQGTLVTVSS
VL: DIQMTQSPSSVSASVGDRVTISCRANQAIGTWLAWYQQKPGKAPKLLIYAASTLQSGVPSRFSGSGSGTEFTLTISSLQAEDVAVYYCQQYYTTPLTFGGGTKLEIKR
**Q.** How did the EC50 turn out when B1 was run?
**A.** 0.088 µg/mL
